# Results taken from US20260209293A1 (Novo Nordisk, published 2026).
# *1 amine or outer side, *2 acyl side, *3 side chain or, on linkers, in order; H or OH if unused. The star is where a group is joined. C20 diacid = O=C(O)CCCCCCCCCCCCCCCCCCC(=O)*; C18 diacid = O=C(O)CCCCCCCCCCCCCCCCC(=O)*; γGlu = O=C(O)[C@H](CCC(=O)[*:2])N[*:1]
# T1: human amylin-3(a) receptor (human, UniProt P30988 25-474; O60896 24-148)
# T1 sequence (looked up) 1: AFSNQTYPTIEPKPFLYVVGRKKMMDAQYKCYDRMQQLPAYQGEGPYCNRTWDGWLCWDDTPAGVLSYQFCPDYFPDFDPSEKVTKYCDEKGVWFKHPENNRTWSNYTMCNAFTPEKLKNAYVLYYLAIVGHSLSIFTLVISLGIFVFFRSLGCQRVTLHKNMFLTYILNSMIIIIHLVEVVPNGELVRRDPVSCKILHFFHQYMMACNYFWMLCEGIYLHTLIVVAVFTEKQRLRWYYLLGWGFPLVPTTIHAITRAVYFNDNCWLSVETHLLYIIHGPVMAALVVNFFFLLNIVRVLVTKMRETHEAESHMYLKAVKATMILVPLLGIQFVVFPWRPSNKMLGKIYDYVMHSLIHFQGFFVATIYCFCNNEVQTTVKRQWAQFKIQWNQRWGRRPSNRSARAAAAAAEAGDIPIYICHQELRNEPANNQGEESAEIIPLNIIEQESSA
# T1 sequence (looked up) 2: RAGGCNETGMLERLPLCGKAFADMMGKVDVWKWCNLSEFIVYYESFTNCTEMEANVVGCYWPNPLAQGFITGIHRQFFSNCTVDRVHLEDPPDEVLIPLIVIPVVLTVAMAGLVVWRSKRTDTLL
# T2: human calcitonin receptor (a) (human, UniProt P30988 25-474)
# T2 sequence (looked up): T1 sequence (looked up) 1
# B1: N^1-[(4S)-4-carboxy-4-(17-carboxyheptadecanoylamino)butanoyl]-[Ala1,Ser2,His3,Leu4,Ser5,Leu7,Gln8,Glu14,His17,Asp21,Pro22,Pro27,Asp31, Pro34,Asp35, … (peptide)
# peptide: {C18 diacid-γGlu}-ASHLSTLQTQRLAEFLHHSSDPFGAIPSSTDVGPDTP-NH2
# SMILES: CC[C@H](C)[C@H](NC(=O)[C@H](C)NC(=O)CNC(=O)[C@H](Cc1ccccc1)NC(=O)[C@@H]1CCCN1C(=O)[C@H](CC(=O)O)NC(=O)[C@H](CO)NC(=O)[C@H](CO)NC(=O)[C@H](Cc1c[nH]cn1)NC(=O)[C@H](Cc1c[nH]cn1)NC(=O)[C@H](CC(C)C)NC(=O)[C@H](Cc1ccccc1)NC(=O)[C@H](CCC(=O)O)NC(=O)[C@H](C)NC(=O)[C@H](CC(C)C)NC(=O)[C@H](CCCNC(=N)N)NC(=O)[C@H](CCC(N)=O)NC(=O)[C@@H](NC(=O)[C@H](CCC(N)=O)NC(=O)[C@H](CC(C)C)NC(=O)[C@@H](NC(=O)[C@H](CO)NC(=O)[C@H](CC(C)C)NC(=O)[C@H](Cc1c[nH]cn1)NC(=O)[C@H](CO)NC(=O)[C@H](C)NC(=O)CC[C@H](NC(=O)CCCCCCCCCCCCCCCCC(=O)O)C(=O)O)[C@@H](C)O)[C@@H](C)O)C(=O)N1CCC[C@H]1C(=O)N[C@@H](CO)C(=O)N[C@@H](CO)C(=O)N[C@H](C(=O)N[C@@H](CC(=O)O)C(=O)N[C@H](C(=O)NCC(=O)N1CCC[C@H]1C(=O)N[C@@H](CC(=O)O)C(=O)N[C@H](C(=O)N1CCC[C@H]1C(N)=O)[C@@H](C)O)C(C)C)[C@@H](C)O
# B2: N^1-[(4S)-4-carboxy-4-(17-carboxyheptadecanoylamino)butanoyl]-[Ala1,Ser2,His3,Leu4,Ser5,Leu7,Gln8,Glu14,His17,Asp21,Pro25,Pro28,Pro29,Asp31, Pro37]-human amylin (peptide)
# peptide: {C18 diacid-γGlu}-ASHLSTLQTQRLAEFLHHSSDNFGPILPPTDVGSNTP-NH2
# SMILES: CC[C@H](C)[C@H](NC(=O)[C@@H]1CCCN1C(=O)CNC(=O)[C@H](Cc1ccccc1)NC(=O)[C@H](CC(N)=O)NC(=O)[C@H](CC(=O)O)NC(=O)[C@H](CO)NC(=O)[C@H](CO)NC(=O)[C@H](Cc1c[nH]cn1)NC(=O)[C@H](Cc1c[nH]cn1)NC(=O)[C@H](CC(C)C)NC(=O)[C@H](Cc1ccccc1)NC(=O)[C@H](CCC(=O)O)NC(=O)[C@H](C)NC(=O)[C@H](CC(C)C)NC(=O)[C@H](CCCNC(=N)N)NC(=O)[C@H](CCC(N)=O)NC(=O)[C@@H](NC(=O)[C@H](CCC(N)=O)NC(=O)[C@H](CC(C)C)NC(=O)[C@@H](NC(=O)[C@H](CO)NC(=O)[C@H](CC(C)C)NC(=O)[C@H](Cc1c[nH]cn1)NC(=O)[C@H](CO)NC(=O)[C@H](C)NC(=O)CC[C@H](NC(=O)CCCCCCCCCCCCCCCCC(=O)O)C(=O)O)[C@@H](C)O)[C@@H](C)O)C(=O)N[C@@H](CC(C)C)C(=O)N1CCC[C@H]1C(=O)N1CCC[C@H]1C(=O)N[C@H](C(=O)N[C@@H](CC(=O)O)C(=O)N[C@H](C(=O)NCC(=O)N[C@@H](CO)C(=O)N[C@@H](CC(N)=O)C(=O)N[C@H](C(=O)N1CCC[C@H]1C(N)=O)[C@@H](C)O)C(C)C)[C@@H](C)O
# B3: N^1-[(4S)-4-carboxy-4-(17-carboxyheptadecanoylamino)butanoyl]-[Ala1,Ser2,His3,Leu4, Ser5, Leu7,Gln8,Glu14,His17,Pro25, Pro28,Pro29,Asp31,Glu35,Pro37], … (peptide)
# peptide: {C18 diacid-γGlu}-ASHLSTLQTQRLAEFLHHFGPILPPTDVGSETP-NH2
# SMILES: CC[C@H](C)[C@H](NC(=O)[C@@H]1CCCN1C(=O)CNC(=O)[C@H](Cc1ccccc1)NC(=O)[C@H](Cc1c[nH]cn1)NC(=O)[C@H](Cc1c[nH]cn1)NC(=O)[C@H](CC(C)C)NC(=O)[C@H](Cc1ccccc1)NC(=O)[C@H](CCC(=O)O)NC(=O)[C@H](C)NC(=O)[C@H](CC(C)C)NC(=O)[C@H](CCCNC(=N)N)NC(=O)[C@H](CCC(N)=O)NC(=O)[C@@H](NC(=O)[C@H](CCC(N)=O)NC(=O)[C@H](CC(C)C)NC(=O)[C@@H](NC(=O)[C@H](CO)NC(=O)[C@H](CC(C)C)NC(=O)[C@H](Cc1c[nH]cn1)NC(=O)[C@H](CO)NC(=O)[C@H](C)NC(=O)CC[C@H](NC(=O)CCCCCCCCCCCCCCCCC(=O)O)C(=O)O)[C@@H](C)O)[C@@H](C)O)C(=O)N[C@@H](CC(C)C)C(=O)N1CCC[C@H]1C(=O)N1CCC[C@H]1C(=O)N[C@H](C(=O)N[C@@H](CC(=O)O)C(=O)N[C@H](C(=O)NCC(=O)N[C@@H](CO)C(=O)N[C@@H](CCC(=O)O)C(=O)N[C@H](C(=O)N1CCC[C@H]1C(N)=O)[C@@H](C)O)C(C)C)[C@@H](C)O
# B4: N^1-[(4S)-4-carboxy-4-(17-carboxyheptadecanoylamino)butanoyl]-[Ala1,Ser2,His3,Leu4,Ser5,Ala7,Gln8,Glu14,His17,Asp21,Pro22,Pro27,Asp31,Pro34,Asp35]-human amylin (peptide)
# peptide: {C18 diacid-γGlu}-ASHLSTAQTQRLAEFLHHSSDPFGAIPSSTDVGPDTY-NH2
# SMILES: CC[C@H](C)[C@H](NC(=O)[C@H](C)NC(=O)CNC(=O)[C@H](Cc1ccccc1)NC(=O)[C@@H]1CCCN1C(=O)[C@H](CC(=O)O)NC(=O)[C@H](CO)NC(=O)[C@H](CO)NC(=O)[C@H](Cc1c[nH]cn1)NC(=O)[C@H](Cc1c[nH]cn1)NC(=O)[C@H](CC(C)C)NC(=O)[C@H](Cc1ccccc1)NC(=O)[C@H](CCC(=O)O)NC(=O)[C@H](C)NC(=O)[C@H](CC(C)C)NC(=O)[C@H](CCCNC(=N)N)NC(=O)[C@H](CCC(N)=O)NC(=O)[C@@H](NC(=O)[C@H](CCC(N)=O)NC(=O)[C@H](C)NC(=O)[C@@H](NC(=O)[C@H](CO)NC(=O)[C@H](CC(C)C)NC(=O)[C@H](Cc1c[nH]cn1)NC(=O)[C@H](CO)NC(=O)[C@H](C)NC(=O)CC[C@H](NC(=O)CCCCCCCCCCCCCCCCC(=O)O)C(=O)O)[C@@H](C)O)[C@@H](C)O)C(=O)N1CCC[C@H]1C(=O)N[C@@H](CO)C(=O)N[C@@H](CO)C(=O)N[C@H](C(=O)N[C@@H](CC(=O)O)C(=O)N[C@H](C(=O)NCC(=O)N1CCC[C@H]1C(=O)N[C@@H](CC(=O)O)C(=O)N[C@H](C(=O)N[C@@H](Cc1ccc(O)cc1)C(N)=O)[C@@H](C)O)C(C)C)[C@@H](C)O
# B5: N^1-[(4S)-4-carboxy-4-(19-carboxynonadecanoylamino)butanoyl]-[Ala1,Ser2,His3,Leu4,Ser5,Ala7,Gln8,Ala10,Glu14,His17,Pro25,Pro28,Pro29,Asp31,Glu35,Pro37],des-(19- … (peptide)
# peptide: {C20 diacid-γGlu}-ASHLSTAQTARLAEFLHHFGPILPPTDVGSETP-NH2
# SMILES: CC[C@H](C)[C@H](NC(=O)[C@@H]1CCCN1C(=O)CNC(=O)[C@H](Cc1ccccc1)NC(=O)[C@H](Cc1c[nH]cn1)NC(=O)[C@H](Cc1c[nH]cn1)NC(=O)[C@H](CC(C)C)NC(=O)[C@H](Cc1ccccc1)NC(=O)[C@H](CCC(=O)O)NC(=O)[C@H](C)NC(=O)[C@H](CC(C)C)NC(=O)[C@H](CCCNC(=N)N)NC(=O)[C@H](C)NC(=O)[C@@H](NC(=O)[C@H](CCC(N)=O)NC(=O)[C@H](C)NC(=O)[C@@H](NC(=O)[C@H](CO)NC(=O)[C@H](CC(C)C)NC(=O)[C@H](Cc1c[nH]cn1)NC(=O)[C@H](CO)NC(=O)[C@H](C)NC(=O)CC[C@H](NC(=O)CCCCCCCCCCCCCCCCCCC(=O)O)C(=O)O)[C@@H](C)O)[C@@H](C)O)C(=O)N[C@@H](CC(C)C)C(=O)N1CCC[C@H]1C(=O)N1CCC[C@H]1C(=O)N[C@H](C(=O)N[C@@H](CC(=O)O)C(=O)N[C@H](C(=O)NCC(=O)N[C@@H](CO)C(=O)N[C@@H](CCC(=O)O)C(=O)N[C@H](C(=O)N1CCC[C@H]1C(N)=O)[C@@H](C)O)C(C)C)[C@@H](C)O
# B6: N^1-[(4S)-4-carboxy-4-(17-carboxyheptadecanoylamino)butanoyl]-[Ala1,Ser2,His3,Leu4,Ser5,Ala7,Gln8,Ala10,Glu14,His17,Asp21,Pro22,Pro27,Asp31, Pro34,Asp35]-human … (peptide)
# peptide: {C18 diacid-γGlu}-ASHLSTAQTARLAEFLHHSSDPFGAIPSSTDVGPDTY-NH2
# SMILES: CC[C@H](C)[C@H](NC(=O)[C@H](C)NC(=O)CNC(=O)[C@H](Cc1ccccc1)NC(=O)[C@@H]1CCCN1C(=O)[C@H](CC(=O)O)NC(=O)[C@H](CO)NC(=O)[C@H](CO)NC(=O)[C@H](Cc1c[nH]cn1)NC(=O)[C@H](Cc1c[nH]cn1)NC(=O)[C@H](CC(C)C)NC(=O)[C@H](Cc1ccccc1)NC(=O)[C@H](CCC(=O)O)NC(=O)[C@H](C)NC(=O)[C@H](CC(C)C)NC(=O)[C@H](CCCNC(=N)N)NC(=O)[C@H](C)NC(=O)[C@@H](NC(=O)[C@H](CCC(N)=O)NC(=O)[C@H](C)NC(=O)[C@@H](NC(=O)[C@H](CO)NC(=O)[C@H](CC(C)C)NC(=O)[C@H](Cc1c[nH]cn1)NC(=O)[C@H](CO)NC(=O)[C@H](C)NC(=O)CC[C@H](NC(=O)CCCCCCCCCCCCCCCCC(=O)O)C(=O)O)[C@@H](C)O)[C@@H](C)O)C(=O)N1CCC[C@H]1C(=O)N[C@@H](CO)C(=O)N[C@@H](CO)C(=O)N[C@H](C(=O)N[C@@H](CC(=O)O)C(=O)N[C@H](C(=O)NCC(=O)N1CCC[C@H]1C(=O)N[C@@H](CC(=O)O)C(=O)N[C@H](C(=O)N[C@@H](Cc1ccc(O)cc1)C(N)=O)[C@@H](C)O)C(C)C)[C@@H](C)O
# Experiments:
# [1] = target: T1, human amylin-3(a) receptor; test: cell-based or functional assay
# [2] = target: T2, human calcitonin receptor (a); test: cell-based or functional assay
Binder,"hAmyR3 potency, EC50 (pM); CRE-luciferase reporter in BHK cells [1] [pM]","hCalcR potency, EC50 (pM); CRE-luciferase reporter in BHK cells [2] [pM]"
B1,1.69,1.74
B2,1.91,2.06
B3,1.6,2.26
B4,2.96,3.22
B5,1.09,1.49
B6,1.68,2.16
